Measured values: article PMC6906086

Tests used:
Lsr2BD T112D = Lsr2BD T112D (Mycobacterium tuberculosis H37Rv, UniProt P9WIP7 66-112, T112D); assay: fluorescence anisotropy; details: protein: recombinant, blunt
Lsr2BD WT = Lsr2BD WT (Mycobacterium tuberculosis H37Rv, UniProt P9WIP7 66-112); assay: fluorescence anisotropy; details: protein: recombinant; tags: 6xHis; blunt
Lsr2BD T112A = Lsr2BD T112A (Mycobacterium tuberculosis H37Rv, UniProt P9WIP7 66-112, T112A); assay: fluorescence anisotropy; pH 7.5; 4 nM DNA; details: protein: recombinant; label: 5' Alexa Fluor 488; blunt
Lsr2 = Lsr2 (Mycobacterium tuberculosis H37Rv, UniProt P9WIP7 1-112); assay: EMSA; 0.95-7.6 uM Lsr2; details: protein: recombinant; (pET15-TEV, Ni-NTA); chain copies: 2; blunt

B1: GC-rich fragment (leuS MUT sequence), anisotropy (dsDNA)
DNA 1: AACTCGGCGAGGTCGGTCAG
DNA 2: CTGACCGACCTCGCCGAGTT
- binding result (Lsr2BD T112D): no binding
- binding result (Lsr2BD WT): no binding

B2: AT-rich 14-mer (dsDNA)
DNA 1: CGCGCATATATGCG
DNA 2: CGCATATATGCGCG
- binding result (Lsr2BD T112D; label: 5' Alexa Fluor 488): no binding
- Kd (Lsr2BD T112A): 20 ± 8 nM

B3: leuS MUT (dsDNA)
DNA 1: AACTCGGCGAGGTCGGTCAG
DNA 2: CTGACCGACCTCGCCGAGTT
- binding result (Lsr2): binds
